According to publication PMC9167920:

Target: CTSL-treated SARS-CoV-2 S protein ectodomain SR (cleaved at CS-1, T259/A260, and CS-2, Y636/S637) (SARS-CoV-2) (UniProt P0DTC2)
Assay: cryo-EM structure

Substance: CTSL-treated SARS-CoV-2 S protein ectodomain SR (cleaved at CS-1, T259/A260, and CS-2, Y636/S637) (from UniProt P0DTC2) (domain or fragment)
- stoichiometry N: 3
